The source of these data is patent publication US20170355765A1 (published 2017).

For the test, the target named is T1, human TEM8 expressed on CHO or HEK 293 cells (human, UniProt Q9H6X2 33-564).
T1 construct: also called hTEM8; CHO TEM8
Nature of the test: binding to CHO cells expressing human TEM8.

T1 sequence (Q9H6X2 33-564 limits assumed): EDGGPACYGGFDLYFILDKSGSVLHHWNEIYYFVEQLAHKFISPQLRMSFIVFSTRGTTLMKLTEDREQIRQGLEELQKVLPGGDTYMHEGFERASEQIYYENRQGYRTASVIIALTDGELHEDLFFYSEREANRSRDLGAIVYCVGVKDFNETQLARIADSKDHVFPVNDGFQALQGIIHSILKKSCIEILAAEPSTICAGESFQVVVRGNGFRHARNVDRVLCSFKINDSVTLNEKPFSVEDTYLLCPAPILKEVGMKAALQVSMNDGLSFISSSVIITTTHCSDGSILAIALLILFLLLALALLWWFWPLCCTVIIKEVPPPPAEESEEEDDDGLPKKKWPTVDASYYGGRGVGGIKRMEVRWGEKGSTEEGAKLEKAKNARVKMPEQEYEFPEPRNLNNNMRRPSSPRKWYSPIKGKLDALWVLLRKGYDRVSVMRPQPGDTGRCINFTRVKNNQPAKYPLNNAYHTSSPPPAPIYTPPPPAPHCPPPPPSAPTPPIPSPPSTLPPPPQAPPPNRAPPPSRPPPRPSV

B1: antibody drug conjugate including the m825 antibody (in human IgG1 format) conjugated to MMAE (other)
VH: QVQLVQSGAEVKKPGTSVKVSCKVPGYTFSSYAISWVRQAPGQGLEWMGGIIPIFGTTNYAQKFQGRVTITGEESTSTVYMELSSLRSEDTAVYYCARDTDYMFDYWGQGTLVTVSS
VL: SSELTQDPVVSVALGETVSITCQGDNLRDFYASWYQQKPGQAPLLVMYGKNRRPSGIPDRFSGSTSGNTLSLTITGAQAEDEADYYCSSRDNSKHVVFGGGTKVTVL
modifications: MMAE toxin with stretcher unit, Val-Cit peptide cleavage site and spacer, linked to thiol groups formed by partial reduction of inter-chain disulfide bonds (positions not stated)
notes: also called m825-MMAE; m825-MMAE conjugate
In the case of B1, the binding result is “binds”.
